# Experimental data from patent publication US20250186602A1, “HUMANIZED ANTIBODY THAT BONDS TO EVA1 PROTEIN OR FUNCTIONAL FRAGMENT THEREOF, ANTIBODY-DRUG CONJUGATE AND CHIMERIC ANTIGEN RECEPTOR” (CURED INC., priority 2022, published 2025).
# Positions count from the first letter of the chain named.
# T1: hEva1-mouse Fc (human, UniProt O60487 27-154, limits assumed)
# T1 construct: SPR analyte; the '1' is probably the first concentration (1 nM); also called hEva1-mouse Fc1 (so in the source); not shown: mouse Fc
# T1 sequence: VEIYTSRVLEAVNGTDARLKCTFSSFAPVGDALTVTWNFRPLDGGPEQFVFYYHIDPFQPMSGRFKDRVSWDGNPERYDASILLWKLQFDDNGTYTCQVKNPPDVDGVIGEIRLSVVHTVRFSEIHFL
# B1: humanized B2E5-48 antibody H2-L2 (antibody, human IgG1, V domains shown)
# VH: QVQLVQSGAEVKKPGASVKVSCKASGYTFTNYWMHWVRQAPGQGLEWMGEINPTNGGTDYNEKFQGRVTMTVDKSTSTAYMELSSLRSEDTAVYYCTIYTTALDYWGQGTLVTVSS
# VL: EIVLTQSPATLSLSPGERATLSCRASSSVGYMYWYQQKPGQAPRPLIYVTSNRATGIPARFSGSGSGTDYTLTISSLEPEDFAVYYCQQWSSNPPTFGQGTKLEIK
# notes: Human IgG1 heavy chain and human kappa light chain vectors; made in HEK293T cells; also called B2E5-H2-L2
# B2: humanized B2E5-48 antibody H3-L2 (antibody, human IgG1, V domains shown)
# VH: QVQLVQSGSELKKPGASVKVSCKASGYTFTNYWMHWVRQAPGQGLEWIGEINPTNGGTDYNEGFTGRFVLSVDKSSSTAYLQISSLKAEDTAVYYCTIYTTALDYWGQGTLVTVSS
# VL: B1 VL
# notes: Human IgG1 heavy chain and human kappa light chain vectors; made in HEK293T cells
# B3: humanized B2E5-48 antibody H2-L4 (antibody, human IgG1, V domains shown)
# VH: B1 VH
# VL: DIQLTQSPSFLSASVGDRVTITCRASSSVGYMYWYQQKPGKAPKPLIYVTSNLASGVPSRFSGSGSGTEYTLTISSLQPEDFATYYCQQWSSNPPTFGQGTKLEIK
# notes: as for B2
# B4: humanized B2E5-48 antibody H2-L3 (antibody, human IgG1, V domains shown)
# VH: B1 VH
# VL: B3 VL with D1Q
# notes: as for B2
# B5: humanized B2E5-48 antibody H4-L2 (antibody, human IgG1, V domains shown)
# VH: B2 VH with I48M, L70F, S76V
# VL: B1 VL
# notes: as for B2
# B6: humanized B2E5-48 antibody H3-L4 (antibody, human IgG1, V domains shown)
# VH: B2 VH
# VL: B3 VL
# notes: as for B2
# B7: humanized B2E5-48 antibody H3-L3 (antibody, human IgG1, V domains shown)
# VH: B2 VH
# VL: B3 VL with D1Q
# notes: as for B2
# B8: humanized B2E5-48 antibody H4-L3 (antibody, human IgG1, V domains shown)
# VH: B2 VH with I48M, L70F, S76V
# VL: B3 VL with D1Q
# notes: as for B2
# B9: humanized B2E5-48 antibody H4-L4 (antibody, human IgG1, V domains shown)
# VH: B2 VH with I48M, L70F, S76V
# VL: B3 VL
# notes: as for B2
# B10: humanized B2E5-48 antibody H1-L4 (antibody, human IgG1, V domains shown)
# VH: B1 VH with M48I, M70L, T76S
# VL: B3 VL
# notes: as for B2
# B11: H2-L4: humanized B2E5-48 IgG1, VH H2 (SEQ ID NO: 13), VL L4 (SEQ ID NO: 8) (antibody, V domains shown)
# VH: B1 VH
# VL: B3 VL
# modifications: Variable Region of Heavy Chain 2 (Humanized B2E5-48); Variable Region of Light Chain 4 (Humanized B2E5-48)
# B12: H2-L3: humanized B2E5-48 IgG1, VH H2 (SEQ ID NO: 13), VL L3 (SEQ ID NO: 10) (antibody, V domains shown)
# VH: B1 VH
# VL: B3 VL with D1Q
# modifications: Variable Region of Heavy Chain 2 (Humanized B2E5-48); Variable Region of Light Chain 3 (Humanized B2E5-48)
# B13: H1-L4: humanized B2E5-48 IgG1, VH H1 (SEQ ID NO: 15), VL L4 (SEQ ID NO: 8) (antibody, V domains shown)
# VH: B1 VH with M48I, M70L, T76S
# VL: B3 VL
# modifications: Variable Region of Heavy Chain 1 (Humanized B2E5-48); Variable Region of Light Chain 4 (Humanized B2E5-48)
# B14: H3-L2: humanized B2E5-48 IgG1, VH H3 (SEQ ID NO: 16), VL L2 (SEQ ID NO: 7) (antibody, V domains shown)
# VH: B2 VH
# VL: B1 VL
# modifications: Variable Region of Heavy Chain 3 (Humanized B2E5-48); Variable Region of Light Chain 2 (Humanized B2E5-48)
# B15: H3-L4: humanized B2E5-48 IgG1, VH H3 (SEQ ID NO: 16), VL L4 (SEQ ID NO: 8) (antibody, V domains shown)
# VH: B2 VH
# VL: B3 VL
# modifications: Variable Region of Heavy Chain 3 (Humanized B2E5-48); Variable Region of Light Chain 4 (Humanized B2E5-48)
# B16: H3-L3: humanized B2E5-48 IgG1, VH H3 (SEQ ID NO: 16), VL L3 (SEQ ID NO: 10) (antibody, V domains shown)
# VH: B2 VH
# VL: B3 VL with D1Q
# modifications: Variable Region of Heavy Chain 3 (Humanized B2E5-48); Variable Region of Light Chain 3 (Humanized B2E5-48)
# Target: T1, hEva1-mouse Fc
# Assay: SPR (BiaCore T200), single-cycle kinetics; antibody captured by anti-human IgG on CM5 chip, hEva1-mouse Fc as analyte
# Settings: not given
# Description: (§1) The dissociation constants and association constants of the humanized antibodies and the like were analyzed by using surface plasmon resonance (SPR, product name: BiaCore T200 (manufactured by GE healthcare)).
# Specifically, first, human IgG capture antibodies were immobilized on a CM5 chip by an amine coupling method. […] Then, the kinetics analysis on the anti-Eval antibody and hEva1 was conducted by a single-cycle method using the following measurement conditions.
Kd [nM],koff [s⁻¹],kon [M⁻¹ s⁻¹],Molecule
467,0.0092,19700,B1
787,0.0132,16800,B2
529,0.0091,17200,B3
428,0.00886,20700,B4
768,0.0146,19000,B5
873,0.0138,15800,B6
835,0.0125,15000,B7
877,0.0136,15500,B8
994,0.0152,15300,B9
533,0.00931,17500,B10

# Test system: hEva1-mouse Fc
# Assay: Surface plasmon resonance kinetics analysis (BiaCore T200, single-cycle)
# Assay type: binding, human
# Settings: SPR, antibody captured 5 nM, analyte hEva1-mouse Fc 1-250 nM, HBS-EP+ pH 7.4
# Description: as §1
# Specifically, first, human IgG capture antibodies were immobilized on a CM5 chip by an amine coupling method. This immobilization was conducted in both reference cells and active cells. Then, the kinetics analysis on the anti-Eval antibody and hEva1 was conducted by a single-cycle method using the following measurement conditions.
# • Sample compartment temperature: 10° C. • Running buffer: HBS-EP+buffer, pH 7.4 • Capturing molecule: Human IgG antibody, reference & active cells • Ligand: Various antibodies 5 nM, active cells only • Analyte: hEva1-mouse Fc1, 5, 25, 125, 250 nM, reference & active cells • Regeneration buffer: 3M MgCl2, reference & active cells • 3 cycles of Blanks (Analyte zero concentration)
kd [s⁻¹],Molecule,ka [M⁻¹ s⁻¹]
0.009101,B11,17200
0.008858,B12,20710
0.009313,B13,17470
0.0132,B14,16770
0.0138,B15,15800
0.01253,B16,15010
